Among the data in the supplement of paper PMC10126150 are switch fluorescence ratio values, retold here.

± gives the standard deviation of the averaged measurements.
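Also: ATP exposure 15 min at 22 °C before imaging.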

The series deals with ATP. Briefly: switch fluorescence ratio, 500 uM ATP over buffer (Cy3 cluster intensity, sum of 5 cycles each) (fold (ratio)); higher = stronger signal-on switching upon ATP binding; sequences stand for … in TCGTCGGCAGCGTCAGATGTGTATAAGAGACAGTTTTTTTTTTTTTTTTTTTTTTTTT…TC. Particulars: aptamer strand: ATP DNA aptamer (quencher-CACCTGGGGGAGTATTGCGGAGGAAGG + anchor), 100 nM annealed; ATP concentration: 500 uM. Summed up: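 Per cluster, summed Cy3 intensity from the target cycles was divided by that from the buffer cycles to give the fluorescence ratio, then averaged per switch-domain sequence. Clusters outside 100-1000 RFU were excluded. The Cy3-labelled switching-strand clusters, on a modified Illumina MiSeq flow-cell, were annealed to 100 nM quencher-labelled ATP aptamer and imaged in selection buffer, then after 15 min with 500 uM ATP at 22 °C, for five cycles with NaOH stripping and re-annealing between them.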
In the case of TGATAAGGAG, the switch fluorescence ratio amounted to 1.01 ± 0.012.

Turning to CACTACGGGA, the switch fluorescence ratio is 1.05 ± 0.012.

GTGAGGTGTG: the switch fluorescence ratio is 1.001 ± 0.009.

Take TTGAGGTGCG: the switch fluorescence ratio was determined as 1.01 ± 0.026.

With GCGTGGGGGA, the switch fluorescence ratio amounted to 1 ± 0.039.

With TATTTATGGT, the switch fluorescence ratio came out at 0.976 ± 0.039.

On to TAAATTATTC, for which the switch fluorescence ratio was 1.04 ± 0.037.

GAAGTCTGTG: the switch fluorescence ratio came out at 1 ± 0.047.

TAGGGATTTT: the switch fluorescence ratio came out at 0.986 ± 0.018.

For the sequence GCTGTCATTC, the switch fluorescence ratio worked out at 1.01 ± 0.014.

Consider TGGTAGTGGG, for which the switch fluorescence ratio came to 0.98 ± 0.026.

As to GTTGATGGGA, the switch fluorescence ratio worked out at 0.982 ± 0.03.

TTATCTAGTT: the switch fluorescence ratio was 1 ± 0.054.

Take GACAATGTAC: the switch fluorescence ratio stood at 4.02 ± 0.16.

For TTACGCCGAC, the switch fluorescence ratio was 1.14 ± 0.15.

TTGCCCCGTA: the switch fluorescence ratio was found to be 1.02 ± 0.023.

With CCGTTGTAAG, the switch fluorescence ratio worked out at 1.0184 ± 0.001.

With ACCCCGGTAA, the switch fluorescence ratio amounted to 1.87 ± 1.2.

Turning to TTTCGGACAA, the switch fluorescence ratio came out at 1.46 ± 0.5.

On to ATTTTATAAA, for which the switch fluorescence ratio stood at 0.986 ± 0.026.

Consider GTTGTTAGAG, for which the switch fluorescence ratio is 0.989 ± 0.021.

GGGCTTCCGT: the switch fluorescence ratio was 1.089 ± 0.0068.

For the sequence AAAATTTAGC, the switch fluorescence ratio is 0.964 ± 0.054.

For the sequence AGCGGTCCTC, the switch fluorescence ratio was 1.09 ± 0.039.

In the case of TTTAATATTT, the switch fluorescence ratio is 1.04 ± 0.077.

Regarding TACCTGGTTT, the switch fluorescence ratio came out at 1 ± 0.03.

As to CGCTTATGGA, the switch fluorescence ratio was found to be 1.003 ± 0.0032.

On to TGATAGTCCT, for which the switch fluorescence ratio was 1.03 ± 0.013.

Take TGGGGATTGC: the switch fluorescence ratio was determined as 1.02 ± 0.048.

Consider GGGTGTACGG, for which the switch fluorescence ratio stood at 1.04 ± 0.024.

For GACGGGGAAA, the switch fluorescence ratio worked out at 1.01 ± 0.028.

For TAGTATGGCG, the switch fluorescence ratio is 1.04 ± 0.088.

In the case of ATGGGGGACA, the switch fluorescence ratio was 0.981 ± 0.012.

In the case of GTTTTCTTAT, the switch fluorescence ratio came out at 0.998 ± 0.029.

As for GGTTTTTTAC, the switch fluorescence ratio was determined as 1 ± 0.062.

For CTGATTGTGT, the switch fluorescence ratio amounted to 0.9718 ± 0.0034.

On to GAAGCCATAT, for which the switch fluorescence ratio worked out at 1.48 ± 0.068.

With GACGTAGGTC, the switch fluorescence ratio was determined as 1 ± 0.029.

On to TATGGGCTGG, for which the switch fluorescence ratio is 0.979 ± 0.049.

Consider TTGGTTACTG, for which the switch fluorescence ratio amounted to 1.03 ± 0.07.

On to CCTTGCAGAT, for which the switch fluorescence ratio was determined as 1.99 ± 0.78.

Regarding AGAATGTATG, the switch fluorescence ratio came out at 0.994 ± 0.021.

As to CGTAAATTAT, the switch fluorescence ratio amounted to 0.993 ± 0.029.

For AACGCGGCTG, the switch fluorescence ratio was 0.9967 ± 0.0046.

For GAATTTTATG, the switch fluorescence ratio amounted to 0.9549 ± 0.0062.

For the sequence CGTGGGGGCA, the switch fluorescence ratio is 0.9538 ± 0.0076.

As for AGGGTTTAGT, the switch fluorescence ratio is 1 ± 0.01.

Turning to TCGGTGAATT, the switch fluorescence ratio came to 1.01 ± 0.011.

As for TATGTGATGG, the switch fluorescence ratio stood at 0.9874 ± 0.0053.

In the case of TCCAGTTGTA, the switch fluorescence ratio came to 0.99 ± 0.019.

As to AAGATGGTAG, the switch fluorescence ratio came out at 0.971 ± 0.038.

Regarding TAACGGTGTG, the switch fluorescence ratio amounted to 0.962 ± 0.017.

For the sequence GACATAGGTT, the switch fluorescence ratio was found to be 1.034 ± 0.008.

As for CTGAGCTTTC, the switch fluorescence ratio came out at 1.29 ± 0.15.

Regarding GGTTAACTTA, the switch fluorescence ratio turned out to be 0.979 ± 0.042.

Take TGGATGTGGC: the switch fluorescence ratio is 0.963 ± 0.031.

As to GTTTTTTAGT, the switch fluorescence ratio was determined as 0.988 ± 0.023.

On to ATCGAGTAAG, for which the switch fluorescence ratio stood at 1.02 ± 0.029.

Take TGGGAATAGT: the switch fluorescence ratio was determined as 1 ± 0.049.

Turning to TCTTATTCAA, the switch fluorescence ratio was 0.98 ± 0.012.

On to AACTTAGTGG, for which the switch fluorescence ratio amounted to 0.996 ± 0.028.

On to GGGCCCGCGT, for which the switch fluorescence ratio stood at 0.98 ± 0.011.

Take TGTGAGACTT: the switch fluorescence ratio amounted to 1.01 ± 0.052.

On to TTTGATACCC, for which the switch fluorescence ratio turned out to be 0.991 ± 0.064.

In the case of GGGGGGGTCT, the switch fluorescence ratio was 0.973 ± 0.044.

As to TGAGTCGCGT, the switch fluorescence ratio stood at 1.01 ± 0.013.

Regarding TTATACGGCT, the switch fluorescence ratio came out at 1.11 ± 0.092.

Take TGTTTATTGG: the switch fluorescence ratio turned out to be 1.01 ± 0.065.

On to ATACGATGAT, for which the switch fluorescence ratio was 1.04 ± 0.017.

On to TGGTAGGAGA, for which the switch fluorescence ratio is 0.979 ± 0.013.

GGAGCATGGG: the switch fluorescence ratio amounted to 1.19 ± 0.04.

In the case of AAATGTTTAC, the switch fluorescence ratio came out at 1.034 ± 0.0095.

GGACTTCGCG: the switch fluorescence ratio was 1.01 ± 0.085.

Consider AAAGGTCAGG, for which the switch fluorescence ratio was 1 ± 0.028.

As for ACTGGTGTTC, the switch fluorescence ratio was determined as 1.019 ± 0.0094.

TATGGGAAGA: the switch fluorescence ratio came out at 0.985 ± 0.027.

For CCCTTTTTTT, the switch fluorescence ratio was 1.07 ± 0.037.

ATGAACAGGG: the switch fluorescence ratio turned out to be 1.01 ± 0.05.
